Experimental data as given in patent US20140363441A1 (priority 2013, published 2014).

B1: 23K12 (TCN-031) (antibody, V domains shown)
VH: EVQLVESGGGLVQPGGSLRISCAASGFTVSSNYMSWVRQAPGKGLEWVSVIYSGGSTYYADSVKGRFSFSRDNSKNTVFLQMNSLRAEDTAVYYCARCLSRMRGYGLDVWGQGTTVTVS
VL: DIQMTQSPSSLSASVGDRVTITCRTSQSISSYLNWYQQKPGKAPKLLIYAASSLQSGVPSRFSGSGSGTDFTLTISGLQPEDFATYYCQQSYSMPAFGQGTKLEIK

Experiments:
[1] = biological target: 23 amino acid synthetic M2e peptide of A/Fort Worth/1/50 (influenza A virus H1N1 A/Fort Worth/1/50); experiment: ELISA on 23mer M2e peptide coated at 1 µg/ml
SEQ ID NO 273 = experiment: peptide ELISA, mAb 5 µg/mL
SEQ ID NO 307 = experiment: peptide ELISA, mAb 5 µg/mL
SEQ ID NO 308 = experiment: peptide ELISA, mAb 5 µg/mL

Molecule	EC50 [1]	ELISA A450 (SEQ ID NO 273)	ELISA A450 (SEQ ID NO 307)	ELISA A450 (SEQ ID NO 308)
chimeric mouse V-region/human IgG1 kappa 14C2 antibody	0.01 µg/mL			
B1		0.22	0.58	0.62
